Experimental data from publication PMC11515973, “8-Oxoguanine DNA Glycosylase1 conceals oxidized guanine in nucleoprotein-associated RNA of respiratory syncytial virus”.

Molecular target: OGG1 (ENZ-253, ProSpec) (UniProt O15527 1-345)
Experiment: EMSA
Conditions: protein: commercial, label: Cy5

Sequence of OGG1 (ENZ-253, ProSpec) (O15527 whole entry): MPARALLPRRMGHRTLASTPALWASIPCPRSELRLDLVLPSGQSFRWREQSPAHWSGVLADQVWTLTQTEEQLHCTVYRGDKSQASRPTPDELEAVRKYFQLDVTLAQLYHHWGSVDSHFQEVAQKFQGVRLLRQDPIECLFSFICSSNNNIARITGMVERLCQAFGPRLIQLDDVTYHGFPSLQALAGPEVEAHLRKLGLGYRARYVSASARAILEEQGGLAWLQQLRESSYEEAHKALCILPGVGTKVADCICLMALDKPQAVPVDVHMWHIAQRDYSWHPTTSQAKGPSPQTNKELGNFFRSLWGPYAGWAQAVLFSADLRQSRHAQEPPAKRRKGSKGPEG

B1: 8oxo-rG, undenatured (structured_RNA)
RNA: GGGGCAAAUGCAAACAUGUCCAAAAACAAGGACCAACGCA
modifications: single 8-oxoguanine at the end of GGGG
B1: binds (predicted secondary structure).

B2: 8oxo-rG:rC (dsRNA)
RNA 1: GGGGCAAAUGCAAACAUGUCCAAAAACAAGGACCAACGCA
RNA 2: UGCGUUGGUCCUUGUUUUUGGACAUGUUUGCAUUUGCCCC
modifications: single 8-oxoguanine at the end of GGGG
B2: binds (annealed duplex).
